Experimental data published in patent publication US20180009871A1 (INTARCIA THERAPEUTICS, published 2018).
Where no end group is shown, it is not given here. [ ]: non-standard residue; d: D form. Aib = CC(C)(N)C(=O)O

Assays:
[1] = biological target: human glucagon receptor (GCGR) (human, UniProt P47871 26-477); assay: cell-based or functional assay
[2] = biological target: human GLP-1 receptor (GLP-1R) (human, UniProt P43220 24-463); assay: cell-based or functional assay
human GLP-1 receptor (GLP-1R), sequence (P43220 24-463): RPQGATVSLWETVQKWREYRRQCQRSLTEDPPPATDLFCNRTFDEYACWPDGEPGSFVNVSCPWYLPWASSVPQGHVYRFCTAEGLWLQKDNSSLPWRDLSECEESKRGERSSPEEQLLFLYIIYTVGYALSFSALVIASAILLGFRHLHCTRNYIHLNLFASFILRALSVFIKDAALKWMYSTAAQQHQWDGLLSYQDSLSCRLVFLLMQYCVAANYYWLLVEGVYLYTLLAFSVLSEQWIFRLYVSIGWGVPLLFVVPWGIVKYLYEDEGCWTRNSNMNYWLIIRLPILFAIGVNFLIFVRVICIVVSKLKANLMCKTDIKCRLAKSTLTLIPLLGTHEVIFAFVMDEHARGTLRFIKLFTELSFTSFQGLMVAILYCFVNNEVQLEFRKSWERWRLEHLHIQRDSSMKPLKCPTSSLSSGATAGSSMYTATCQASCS

Binder	hGCGR pEC50 (cAMP) [1] [pEC50]	hGLP1 pEC50 (cAMP) [2] [pEC50]
YSHGTFTSDYSKYLD[Aib]KRAQEFV[Aib]WLEDEKRNKPPIA-OH (N-terminus assumed; SMILES CC[C@H](C)[C@H](NC(=O)[C@@H]1CCCN1C(=O)[C@@H]1CCCN1C(=O)[C@H](CCCCN)NC(=O)[C@H](CC(N)=O)NC(=O)[C@H](CCCNC(=N)N)NC(=O)[C@H](CCCCN)NC(=O)[C@H](CCC(=O)O)NC(=O)[C@H](CC(=O)O)NC(=O)[C@H](CCC(=O)O)NC(=O)[C@H](CC(C)C)NC(=O)[C@H](Cc1c[nH]c2ccccc12)NC(=O)C(C)(C)NC(=O)[C@@H](NC(=O)[C@H](Cc1ccccc1)NC(=O)[C@H](CCC(=O)O)NC(=O)[C@H](CCC(N)=O)NC(=O)[C@H](C)NC(=O)[C@H](CCCNC(=N)N)NC(=O)[C@H](CCCCN)NC(=O)C(C)(C)NC(=O)[C@H](CC(=O)O)NC(=O)[C@H](CC(C)C)NC(=O)[C@H](Cc1ccc(O)cc1)NC(=O)[C@H](CCCCN)NC(=O)[C@H](CO)NC(=O)[C@H](Cc1ccc(O)cc1)NC(=O)[C@H](CC(=O)O)NC(=O)[C@H](CO)NC(=O)[C@@H](NC(=O)[C@H](Cc1ccccc1)NC(=O)[C@@H](NC(=O)CNC(=O)[C@H](Cc1c[nH]cn1)NC(=O)[C@H](CO)NC(=O)[C@@H](N)Cc1ccc(O)cc1)[C@@H](C)O)[C@@H](C)O)C(C)C)C(=O)N[C@@H](C)C(=O)O) [Compound A46]	12.5	< 9
YTHGTFTSDYSKWLD[Aib]ARAQEFV[Aib]WLEDEPSSGAPPPS-OH (N-terminus assumed; SMILES CC(C)C[C@H](NC(=O)[C@H](Cc1c[nH]c2ccccc12)NC(=O)[C@H](CCCCN)NC(=O)[C@H](CO)NC(=O)[C@H](Cc1ccc(O)cc1)NC(=O)[C@H](CC(=O)O)NC(=O)[C@H](CO)NC(=O)[C@@H](NC(=O)[C@H](Cc1ccccc1)NC(=O)[C@@H](NC(=O)CNC(=O)[C@H](Cc1c[nH]cn1)NC(=O)[C@@H](NC(=O)[C@@H](N)Cc1ccc(O)cc1)[C@@H](C)O)[C@@H](C)O)[C@@H](C)O)C(=O)N[C@@H](CC(=O)O)C(=O)NC(C)(C)C(=O)N[C@@H](C)C(=O)N[C@@H](CCCNC(=N)N)C(=O)N[C@@H](C)C(=O)N[C@@H](CCC(N)=O)C(=O)N[C@@H](CCC(=O)O)C(=O)N[C@@H](Cc1ccccc1)C(=O)N[C@H](C(=O)NC(C)(C)C(=O)N[C@@H](Cc1c[nH]c2ccccc12)C(=O)N[C@@H](CC(C)C)C(=O)N[C@@H](CCC(=O)O)C(=O)N[C@@H](CC(=O)O)C(=O)N[C@@H](CCC(=O)O)C(=O)N1CCC[C@H]1C(=O)N[C@@H](CO)C(=O)N[C@@H](CO)C(=O)NCC(=O)N[C@@H](C)C(=O)N1CCC[C@H]1C(=O)N1CCC[C@H]1C(=O)N1CCC[C@H]1C(=O)N[C@@H](CO)C(=O)O)C(C)C) [Compound A35]	13.2	< 9
YSHGTFTSDYSKYLD[Aib]KRAQEFV[Aib]WLEDEKRNKNPPS-OH (N-terminus assumed; SMILES CC(C)C[C@H](NC(=O)[C@H](Cc1ccc(O)cc1)NC(=O)[C@H](CCCCN)NC(=O)[C@H](CO)NC(=O)[C@H](Cc1ccc(O)cc1)NC(=O)[C@H](CC(=O)O)NC(=O)[C@H](CO)NC(=O)[C@@H](NC(=O)[C@H](Cc1ccccc1)NC(=O)[C@@H](NC(=O)CNC(=O)[C@H](Cc1c[nH]cn1)NC(=O)[C@H](CO)NC(=O)[C@@H](N)Cc1ccc(O)cc1)[C@@H](C)O)[C@@H](C)O)C(=O)N[C@@H](CC(=O)O)C(=O)NC(C)(C)C(=O)N[C@@H](CCCCN)C(=O)N[C@@H](CCCNC(=N)N)C(=O)N[C@@H](C)C(=O)N[C@@H](CCC(N)=O)C(=O)N[C@@H](CCC(=O)O)C(=O)N[C@@H](Cc1ccccc1)C(=O)N[C@H](C(=O)NC(C)(C)C(=O)N[C@@H](Cc1c[nH]c2ccccc12)C(=O)N[C@@H](CC(C)C)C(=O)N[C@@H](CCC(=O)O)C(=O)N[C@@H](CC(=O)O)C(=O)N[C@@H](CCC(=O)O)C(=O)N[C@@H](CCCCN)C(=O)N[C@@H](CCCNC(=N)N)C(=O)N[C@@H](CC(N)=O)C(=O)N[C@@H](CCCCN)C(=O)N[C@@H](CC(N)=O)C(=O)N1CCC[C@H]1C(=O)N1CCC[C@H]1C(=O)N[C@@H](CO)C(=O)O)C(C)C) [Compound A47]	11.5	< 9
YTHGTFTSDYSKWLDSKRAQEFVKWLEDEPSSGAPPPS-OH [Compound A42]	9.4	< 9
YSHGTFTSDHSKWLD[Aib]ARAQEFV[Aib]WLEDEPSSGAPPPS-OH (N-terminus assumed; SMILES CC(C)C[C@H](NC(=O)[C@H](Cc1c[nH]c2ccccc12)NC(=O)[C@H](CCCCN)NC(=O)[C@H](CO)NC(=O)[C@H](Cc1c[nH]cn1)NC(=O)[C@H](CC(=O)O)NC(=O)[C@H](CO)NC(=O)[C@@H](NC(=O)[C@H](Cc1ccccc1)NC(=O)[C@@H](NC(=O)CNC(=O)[C@H](Cc1c[nH]cn1)NC(=O)[C@H](CO)NC(=O)[C@@H](N)Cc1ccc(O)cc1)[C@@H](C)O)[C@@H](C)O)C(=O)N[C@@H](CC(=O)O)C(=O)NC(C)(C)C(=O)N[C@@H](C)C(=O)N[C@@H](CCCNC(=N)N)C(=O)N[C@@H](C)C(=O)N[C@@H](CCC(N)=O)C(=O)N[C@@H](CCC(=O)O)C(=O)N[C@@H](Cc1ccccc1)C(=O)N[C@H](C(=O)NC(C)(C)C(=O)N[C@@H](Cc1c[nH]c2ccccc12)C(=O)N[C@@H](CC(C)C)C(=O)N[C@@H](CCC(=O)O)C(=O)N[C@@H](CC(=O)O)C(=O)N[C@@H](CCC(=O)O)C(=O)N1CCC[C@H]1C(=O)N[C@@H](CO)C(=O)N[C@@H](CO)C(=O)NCC(=O)N[C@@H](C)C(=O)N1CCC[C@H]1C(=O)N1CCC[C@H]1C(=O)N1CCC[C@H]1C(=O)N[C@@H](CO)C(=O)O)C(C)C) [Compound A36]	10.2	< 9
YSHGTFTSDYSKYLDKARAQEFVKWLEDEPSSGAPPPS-OH [Compound A43]	11.8	< 9
YSHGTFTSDYSKYLDQARAQEFVKWLEDEPSSGAPPPS-OH [Compound A44]	11.9	< 9
YSHGTFTSDHSKWLDSARAQEFVKWLEDEPSSGAPPPS-OH [Compound A40]	10.1	< 9
YSHGTFTSDYSKWLDSARAQEFVKWLEDEPSSGAPPPS-OH [Compound A38]	13.7	< 9
YSHGTFTSDYSKYLD[Aib]KRAQEFV[Aib]WLEDEKRNKPPPA-OH (N-terminus assumed; SMILES CC(C)C[C@H](NC(=O)[C@H](Cc1ccc(O)cc1)NC(=O)[C@H](CCCCN)NC(=O)[C@H](CO)NC(=O)[C@H](Cc1ccc(O)cc1)NC(=O)[C@H](CC(=O)O)NC(=O)[C@H](CO)NC(=O)[C@@H](NC(=O)[C@H](Cc1ccccc1)NC(=O)[C@@H](NC(=O)CNC(=O)[C@H](Cc1c[nH]cn1)NC(=O)[C@H](CO)NC(=O)[C@@H](N)Cc1ccc(O)cc1)[C@@H](C)O)[C@@H](C)O)C(=O)N[C@@H](CC(=O)O)C(=O)NC(C)(C)C(=O)N[C@@H](CCCCN)C(=O)N[C@@H](CCCNC(=N)N)C(=O)N[C@@H](C)C(=O)N[C@@H](CCC(N)=O)C(=O)N[C@@H](CCC(=O)O)C(=O)N[C@@H](Cc1ccccc1)C(=O)N[C@H](C(=O)NC(C)(C)C(=O)N[C@@H](Cc1c[nH]c2ccccc12)C(=O)N[C@@H](CC(C)C)C(=O)N[C@@H](CCC(=O)O)C(=O)N[C@@H](CC(=O)O)C(=O)N[C@@H](CCC(=O)O)C(=O)N[C@@H](CCCCN)C(=O)N[C@@H](CCCNC(=N)N)C(=O)N[C@@H](CC(N)=O)C(=O)N[C@@H](CCCCN)C(=O)N1CCC[C@H]1C(=O)N1CCC[C@H]1C(=O)N1CCC[C@H]1C(=O)N[C@@H](C)C(=O)O)C(C)C) [Compound A45]	11.7	< 9
YSHGTFTSDYSKYLDSARAQEFVKWLEDEPSSGAPPPS-OH [Compound A37]	13	< 9
YTHGTFTSDYSKWLDSARAQEFVKWLEDEPSSGAPPPS-OH [Compound A39]	9.4	< 9
YTHGTFTSDHSKWLDEARAQEFVKWLEDEPSSGAPPPS-OH [Compound A41]	9.2	< 9
